Measurements as given in paper doi:10.1101/2020.10.22.351346.

Legend:
[1] = target: microtubules of pig brain tubulin, taxol-stabilised, surface-immobilised (pig) (UniProt P02550); test: TIRF fluorescence imaging of labelled MAP on surface-immobilised MTs
[2] = target: microtubules of pig brain tubulin, taxol-stabilised, surface-immobilised (pig) (UniProt P02550)

full-length human MAP7, sequence (Q14244 whole entry): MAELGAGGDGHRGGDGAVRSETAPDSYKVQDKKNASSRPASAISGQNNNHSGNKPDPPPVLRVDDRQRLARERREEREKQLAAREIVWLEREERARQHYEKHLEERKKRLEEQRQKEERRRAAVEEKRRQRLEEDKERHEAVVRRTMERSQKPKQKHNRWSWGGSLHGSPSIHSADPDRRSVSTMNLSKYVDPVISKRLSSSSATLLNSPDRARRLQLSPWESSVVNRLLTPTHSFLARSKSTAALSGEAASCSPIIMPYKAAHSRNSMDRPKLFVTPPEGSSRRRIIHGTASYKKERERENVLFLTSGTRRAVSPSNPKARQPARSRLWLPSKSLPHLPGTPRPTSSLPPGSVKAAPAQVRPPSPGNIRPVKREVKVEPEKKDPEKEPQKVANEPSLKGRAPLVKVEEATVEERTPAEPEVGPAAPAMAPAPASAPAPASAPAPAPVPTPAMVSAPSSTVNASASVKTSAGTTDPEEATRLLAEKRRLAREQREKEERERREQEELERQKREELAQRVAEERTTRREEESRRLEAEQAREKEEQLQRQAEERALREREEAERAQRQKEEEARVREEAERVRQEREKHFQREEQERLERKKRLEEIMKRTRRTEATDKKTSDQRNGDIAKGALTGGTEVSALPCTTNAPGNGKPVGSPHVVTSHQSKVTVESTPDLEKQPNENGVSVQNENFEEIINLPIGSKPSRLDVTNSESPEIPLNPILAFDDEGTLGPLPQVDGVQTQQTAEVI
MAP7-N (amino acids 1-316), sequence (Q14244 1-316): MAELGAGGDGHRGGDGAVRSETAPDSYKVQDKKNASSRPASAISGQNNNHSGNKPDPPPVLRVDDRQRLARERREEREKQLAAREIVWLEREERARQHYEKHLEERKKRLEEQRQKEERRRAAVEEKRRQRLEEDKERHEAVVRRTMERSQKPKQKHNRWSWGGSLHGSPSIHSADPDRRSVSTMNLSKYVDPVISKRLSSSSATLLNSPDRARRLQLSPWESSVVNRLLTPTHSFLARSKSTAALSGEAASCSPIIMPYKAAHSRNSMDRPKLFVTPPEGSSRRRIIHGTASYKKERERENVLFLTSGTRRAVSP
Tau-MTBD (amino acids 242-367), sequence (P10636 559-684): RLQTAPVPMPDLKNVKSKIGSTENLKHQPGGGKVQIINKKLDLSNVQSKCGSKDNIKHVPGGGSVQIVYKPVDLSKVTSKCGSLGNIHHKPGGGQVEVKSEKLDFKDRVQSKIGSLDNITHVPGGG

Question: For “Tau-MTBD (amino acids 242-367) (from UniProt P10636-8 242-367) (domain or fragment)”, which fold lower affinity than FL tau [1] is on record?
Answer: 100 fold

Question: With “MAP7-N (amino acids 1-316) (from UniProt Q14244-1 1-316) (domain or fragment)” as the substance, how does the IC50 of the run frequency of K560 on MTs against the concentration of MAP7-N [2] read?
Answer: 17.6 nM

Question: What does the source list for “full-length human MAP7 (from UniProt Q14244-1 1-749) (natural protein)”?
Answer: IC50 [1]: 270 nM; Kd [1]: 111 nM
